Results reported in patent US20060099210.

Key:
[1] = system: GST-2E11 (fusion protein between GST and a KCNQ2-15b polypeptide comprising exons 13, 14 and 15b; encoded by pGEX-2TK-2E11)
[2] = system: GST (glutathione S-transferase expressed from the pGEX2TK plasmid; negative control) [GST: P08515]
Chain of GST (glutathione S-transferase expressed from the pGEX2TK plasmid; negative control) [GST: P08515] (P08515 whole entry): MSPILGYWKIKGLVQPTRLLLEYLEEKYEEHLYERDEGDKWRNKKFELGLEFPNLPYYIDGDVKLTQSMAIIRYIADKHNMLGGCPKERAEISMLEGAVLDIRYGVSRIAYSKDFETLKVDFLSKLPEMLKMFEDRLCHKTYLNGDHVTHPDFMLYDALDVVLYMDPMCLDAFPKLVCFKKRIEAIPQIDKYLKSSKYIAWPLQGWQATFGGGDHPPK

Chain of GST-2E11 (fusion protein between GST and a KCNQ2-15b polypeptide comprising exons 13, 14 and 15b; encoded by pGEX-2TK-2E11) (chain, as listed by the source): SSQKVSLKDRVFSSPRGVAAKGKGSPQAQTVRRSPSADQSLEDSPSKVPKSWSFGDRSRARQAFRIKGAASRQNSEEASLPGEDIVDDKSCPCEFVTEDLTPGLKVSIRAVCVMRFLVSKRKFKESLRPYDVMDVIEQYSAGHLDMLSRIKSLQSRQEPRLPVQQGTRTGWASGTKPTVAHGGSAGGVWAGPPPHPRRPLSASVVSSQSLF

## Protein Kinase A Catalytic Subunit (PKA from bovine heart, Sigma)
[1]
  in vitro phosphorylation with [32P]γATP, SDS-PAGE and autoradiography: a band located at a position corresponding to a protein of a size of about 45 kD did appear
[2]
  in vitro phosphorylation with [32P]γATP, SDS-PAGE and autoradiography (negative control with GST instead of GST-2E11): No bands appeared in the three lines corresponding to the negative controls

## recombinant GSK-3β kinase (New England Biolabs)
[1]
  in vitro phosphorylation in the presence of 5 µg of CREB phosphopeptides as competitor: A band did still appear at a position corresponding to the size of GST-2E11, but the intensity of the band was very significantly lower
  in vitro phosphorylation with [32P]γATP, SDS-PAGE and autoradiography: a band located at a position corresponding to a protein of a size of about 45 kD did appear
[2]
  in vitro phosphorylation with [32P]γATP, SDS-PAGE and autoradiography (negative control with GST instead of GST-2E11): No bands appeared in the three lines corresponding to the negative controls
